Here are results for six proteins from patent publication US9169496B2, “Method for the enzymatic production of butadiene” (Scientist of Fortune, S.A., priority 2011, dated 2015).

As usually defined, the Km is the substrate concentration at which the rate is half of its maximum. Usually kcat stands for the number of substrate molecules converted per active site and unit of time at saturation.

Substrate in data set [1]: C/C=C/CO
Description: Kinetic parameters of crotyl alcohol phosphorylation (pyruvate kinase/lactate dehydrogenase coupled spectrophotometric assay). The class given is biochemical, Escherichia coli. As to conditions: other: crotyl alcohol phosphorylation, pH 7.5, 37° C., 5 mM ATP. On the procedure:
(§1) The release of ADP that is associated with crotyl alcohol phosphorylation was quantified using the pyruvate kinase/lactate dehydrogenase coupled assay (FIG. 5). The purified 4-methyl-5-(2-hydroxyethyl)thiazole kinases from Escherichia coli (SEQ ID NO:2), Bacillus subtilis (SEQ ID NO:1), Rhizobium leguminosarum (SEQ ID NO:3) were evaluated for their ability to phosphorylate crotyl alcohol releasing ADP. The studied enzymatic reaction was carried out under the following conditions at 37° C.: • 50 mM Tris-HCl pH 7.5 • 10 mM MgCl2 • 100 mM KCl • 5 mM ATP • 0.4 mM NADH • 1 mM Phosphoenolpyruvate • 3 U/ml Lactate dehydrogenase • 1.5 U/ml Pyruvate kinase • 50 mM crotyl alcohol, mixture cis and trans • The pH was adjusted to 7.5
(§2) Each assay was started by addition of a particular enzyme at a concentration 0.05 mg/ml and the disappearance of NADH was monitored by following the absorbance at 340 nm.
(§3) Kinetic parameters of crotyl alcohol phosphorylation were determined using the spectrophotometric assay described in Example 2.

Substrate in data set [2]: C/C=C\CO
The data set is described as above. The class given is biochemical, Escherichia coli. The settings on record: other: crotyl alcohol phosphorylation, pH 7.5, 37° C., 5 mM ATP. On the procedure: as §1, §2, §3

Substrate in data set [3]: C/C=C/COP(=O)(O)O
The experiment in a line: Kinetic parameters of the crotyl monophosphate phosphorylation reaction (pyruvate kinase/lactate dehydrogenase coupled spectrophotometric assay). In kind it is biochemical, Thermoplasma acidophilum. As to conditions: other: trans crotyl monophosphate as a substrate; assay of Example 2; pH 7.5; 37.0 °C. The protocol: as §1, §2
(§4) Sequences of isopentenyl monophosphate kinases inferred from the genomes of several members of the Archaea, in particular Methanothermobacter (SEQ ID NO:5), Methanocaldococcus (SEQ ID NO:6) and Thermoplasma (SEQ ID NO:4) genus, are generated by oligonucleotide concatenation to fit the codon usage of E. coli. […] The genes thus synthesized are cloned in a pET25b expression vector and the proteins are produced according to the protocol described in Example 1. The enzymes are then assayed using the method described in Example 2 with crotyl monophosphate concentrations varying from 0 to 50 mM. The release of ADP that is associated with crotyl monophosphate phosphorylation is quantified using the pyruvate kinase/lactate dehydrogenase coupled assay. Each assay is started by addition of particular enzyme (at a final concentration from 0.05 mg/ml to 1 mg/ml) and the disappearance of NADH is monitored by following the absorbance at 340 nm.
(§5) Cis crotyl monophosphate and trans crotyl monophosphate were synthesized upon request by a company specialized in custom synthesis (Syntheval, France). Kinetic parameters for the phosphorylation of these substrates were determined using the spectrophotometric assay described in Example 2. Kinetic parameters obtained with purified isopentenyl monophosphate kinases from different members of the Archaea kingdom are presented in Table 3 (cis crotyl monophosphate as a substrate) and Table 4 (trans crotyl monophosphate as a substrate).

Substrate in data set [4]: C/C=C\COP(=O)(O)O
Described as above. In kind it is biochemical, Thermoplasma acidophilum. The settings on record: other: cis crotyl monophosphate as a substrate; assay of Example 2; pH 7.5; 37.0 °C. The protocol:
as §1, §2, §4, §5

Substrate in data set [5]: C/C=C/COP(=O)(O)O
Description: Kinetic parameters of enzyme catalyzed production of 1,3-butadiene from trans crotyl monophosphate (GC/FID). The class given is biochemical, Eucalyptus globulus. As to conditions: other: 0-25 mM trans crotyl monophosphate, pH 7.5, 37° C., 20 mM MgCl2, 20 mM KCl, 0.5-4 h. On the procedure:
(§6) One ml of the gaseous phase was then collected and directly injected into a Varian GC-430 gas chromatograph equipped with a flame ionization detector (FID). Nitrogen was used as carrier gas with a flow rate of 1.5 ml/min. Volatile compounds were chromatographically separated on RT-Alumina Bond/Na2SO4 column (Restek) using an isothermal mode at 130° C. The enzymatic reaction product was identified by direct comparison with 1,3-butadiene standard (Sigma).
The kinetic parameters of enzyme catalyzed production of 1,3-butadiene from trans crotyl monophosphate were measured under the following conditions: • 50 mM Tris-HCl pH 7.5 • 20 mM MgCl2 • 20 mM KCl • 2 mM DTT • 0-25 mM trans crotyl monophosphate
(§7) The reaction was initiated by addition of 0.25 mg of purified monoterpene synthase from Eucalyptus globulus to 0.5 ml of reaction mixture. An enzyme-free control reaction was carried out in parallel. Assays were incubated at 37° C. for 0.5-4 h in a sealed vial of 1.5 ml (Interchim) with shaking.
(§8) 1,3-butadiene production was analyzed using the GC/FID procedure described in Example 12.

Substrate in data set [6]: C/C=C/COP(=O)(O)OP(=O)(O)O
The experiment in a line: Kinetic parameters of enzyme catalyzed production of 1,3-butadiene from trans crotyl diphosphate (GC/FID). The class given is biochemical, Eucalyptus globulus. As to conditions: other: 0-25 mM trans crotyl diphosphate, pH 7.5, 37° C., 20 mM MgCl2, 20 mM KCl, 0.5-4 h. On the procedure:
as §6
The kinetic parameters of enzyme catalyzed production of 1,3-butadiene from trans crotyl […] were measured under the following conditions: • 50 mM Tris-HCl pH 7.5 • 20 mM MgCl2 • 20 mM KCl • 2 mM DTT • 0-25 mM trans crotyl diphosphate
as §7, §8

Substrate in data set [7]: C/C=C/COP(=O)(O)O
Description: Kinetic parameters of the crotyl monophosphate phosphorylation reaction (pyruvate kinase/lactate dehydrogenase coupled spectrophotometric assay). In kind it is biochemical, Methanothermobacter thermautotrophicus. As to conditions: other: trans crotyl monophosphate as a substrate; assay of Example 2; pH 7.5; 37.0 °C. The protocol: as §1, §2, §4, §5

Substrate in data set [8]: C/C=C\COP(=O)(O)O
The description is as above. The class given is biochemical, Methanothermobacter thermautotrophicus. As to conditions: other: cis crotyl monophosphate as a substrate; assay of Example 2; pH 7.5; 37.0 °C. On the procedure:
as §1, §2, §4, §5

Substrate in data set [9]: NC(=O)C1=CN([C@@H]2O[C@H](COP(=O)(O)OP(=O)(O)OC[C@H]3O[C@@H](n4cnc5c(N)ncnc54)[C@H](OP(=O)(O)O)[C@@H]3O)[C@@H](O)[C@H]2O)C=CC1
Description: purified protein, by the assay type. As to conditions: other: crotonyl-CoA fixed at 5 mM, NADPH 0 to 0.8 mM, pH 7.5, 37° C.

Substrate in data set [10]: C/C=C/C(=O)SCCNC(=O)CCNC(=O)[C@H](O)C(C)(C)COP(=O)(O)OP(=O)(O)OC[C@H]1O[C@@H](n2cnc3c(N)ncnc32)[C@H](O)[C@@H]1OP(=O)(O)O
The experiment in a line: Kinetic parameters towards crotonyl-CoA, overall reaction (crotyl alcohol quantification by HPLC). The class given is biochemical, Hahella chejuensis. As to conditions: other: NADPH fixed at 80 mM, crotonyl-CoA 0 to 32 mM, pH 7.5, 37° C.

Substrate in data set [11]: C/C=C/COP(=O)(O)O
The experiment in a line: Kinetic parameters of the crotyl monophosphate phosphorylation reaction (pyruvate kinase/lactate dehydrogenase coupled spectrophotometric assay). The class given is biochemical, Methanocaldococcus jannaschii. As to conditions: other: trans crotyl monophosphate as a substrate; assay of Example 2; pH 7.5; 37.0 °C. On the procedure:
as §1, §2, §4, §5

Substrate in data set [12]: C/C=C\COP(=O)(O)O
Described as above. In kind it is biochemical, Methanocaldococcus jannaschii. The settings on record: other: cis crotyl monophosphate as a substrate; assay of Example 2; pH 7.5; 37.0 °C. On the procedure:
as §1, §2, §4, §5

B1: 4-methyl-5-(2-hydroxyethyl)thiazole kinase (hydroxyethylthiazole kinase, EC 2.7.1.50) from Escherichia coli, SEQ ID NO:2 (Escherichia coli K-12) (protein)
chain: MQVDLLGSAQSAHALHLFHQHSPLVHCMTNDVVQTFTANTLLALGASPAMVIETEEASQFAAIASALLINVGTLTQPRAQAMRAAVEQAKSSQTPWTLDPVAVGALDYRRHFCHELLSFKPAAIRGNASEIMALAGIANGGRGVDTTDAAANAIPAAQTLARETGAIVVVTGEMDYVTDGHRIIGIHGGDPLMTKVVGTGCALSAVVAACCALPGDTLENVASACHWMKQAGERAVARSEGPGSFVPHFLDALWQLTQEVQA
Consider B1, for which, in [1], the Km was 30000 µM and the kcat turned out to be 0.11 s⁻¹. Further, in data set [2], the Km was 13600 µM and the kcat stood at 0.19 s⁻¹.

B2: isopentenyl monophosphate kinase from Thermoplasma acidophilum, SEQ ID NO:4 (Thermoplasma acidophilum DSM 1728) (protein)
chain: MMILKIGGSVITDKSAYRTARTYAIRSIVKVLSGIEDLVCVVHGGGSFGHIKAMEFGLPGPKNPRSSIGYSIVHRDMENLDLMVIDAMIEMGMRPISVPISALRYDGRFDYTPLIRYIDAGFVPVSYGDVYIKDEHSYGIYSGDDIMADMAELLKPDVAVFLTDVDGIYSKDPKRNPDAVLLRDIDTNITFDRVQNDVTGGIGKKFESMVKMKSSVKNGVYLINGNHPERIGDIGKESFIGTVIR
Turning to B2, in data set [3], the Km came out at 1000 µM and the kcat worked out at 2.2 s⁻¹. Further, in data set [4], the Km was 610 µM and the turnover number (kcat) is 1.8 s⁻¹.

B3: monoterpene synthase from Eucalyptus globulus, SEQ ID NO: 8 (Eucalyptus globulus) (protein)
chain: MALRLLFTPHLPVLSSRRANGRVRCSASTQISDPQEGRRSANYQPSVWTYNYLQSIVAGEGRQSRREVEQQKEKVQILEEEVRGALNDEKAETFTIFATVDDIQRLGLGDHFEEDISNALRRCVSKGAVFMSLQKSLHGTALGFRLLRQHGYEVSQDVFKIFLDESGSFVKTLGGDVQGVLSLYEASHLAFEEEDILHKARSFAIKHLENLNSDVDKDLQDQVKHELELPLHRRMPLLEARRSIEAYSRREYTNPQILELALTDFNVSQSTLQRDLQEMLGWWNNTGLAKRLSFARDRLIECFFWAVGIAHEPSLSICRKAVTKAFALILVLDDVYDVFGTLEELELFTEAVRRWDLNAVEDLPVYMKLCYLALYNSVNEMAYETLKEKGENVIPYLAKAWYDLCKAFLQEAKWSNSRIIPGVEEYLNNGWVSSSGSVMLIHAYFLASPSIRKEELESLEHYHDLLRLPSLIFRLTNDIASSSAELERGETTNSIRCFMQEKGISELEARECVKEEIDTAWKKMNKYMVDRSTFNQSFVRMTYNLARMAHCVYQDGDAIGSPDDLSWNRVHSLIIKPISPAA
For B3, the Michaelis constant (Km) was 6000 µM in [5] and 7000 µM in data set [6]. Besides, the kcat in [6] was 3e-05 s⁻¹.

B4: isopentenyl monophosphate kinase from Methanothermobacter thermautotrophicus, SEQ ID NO:5 (Methanothermobacter thermautotrophicus str. Delta H) (protein)
chain: MIILKLGGSVITRKDSEEPAIDRDNLERIASEIGNASPSSLMIVHGAGSFGHPFAGEYRIGSEIENEEDLRRRRFGFALTQNWVKKLNSHVCDALLAEGIPAVSMQPSAFIRAHAGRISHADISLIRSYLEEGMVPVVYGDVVLDSDRRLKFSVISGDQLINHFSLRLMPERVILGTDVDGVYTRNPKKHPDARLLDVIGSLDDLESLDGTLNTDVTGGMVGKIRELLLLAEKGVESEIINAAVPGNIERALLGEEVRGTRITGKH
For the protein B4, the Km in data set [7] amounted to 450 µM; in [8] it was 940 µM. The kcat was determined as 8.7 s⁻¹ in data set [7] and 5.7 s⁻¹ in data set [8].

B5: short chain alcohol dehydrogenase-like protein from Hahella chejuensis, SEQ ID NO: 17 (Hahella chejuensis KCTC 2396) (protein)
chain: MNYFVTGGTGFIGRFLVPKLLKRGGTVYLLVREASLPKLDELRERWNASDEQVVGVVGDLAQPMLGVSEKDAAMLRGKVGHFFHLAAIYDMQASAESQEQANIEGTRNAVKLADSLKAACFHHVSSIAAAGLYRGIFREDMFEEAEKLDNPYLRTKHESEKVVREECQTPWRVYRPGMVVGHSKTGEIDKIDGPYYFFKLIQKLRSALPQWMPTVGLEGGRINIVPVDFVVDAMDHIAHAEGEDGKCFHLTDPDPYKVGEILNIFAEAGHAPKMAMRIDARMFGFIPPMIRQGIARLPPVQRMKNAVLNDLGIPDEVMSFINYPTRFDNRETERLLKGTAIAVPRLQDYSPAIWDYWERHLDPDLHKDRTLRGAVEGRVCVITGATSGIGLSAARKLAEAGAKVVIAARTLEKLQEVKKELEELGGEVYEYSVDLSDLEDCDRFVANVLKDLGHVDVLVNNAGRSIRRSIQHAFDRFHDFERTMQLNYFGSLRLIMGFAPSMLERRRGHIVNISSIGVLTNAPRFSAYVASKAALDAFSRCAAAEFSDKNVTFTTINMPLVRTPMISPTKIYDSVPTLTPEEAADLVAEAIIHRPKRIATRLGVFAQVLHSMAPKFSEIIMNTGFKMFPDSSAATGGKDGEKPKVSTEQVAFAAIMRGIHW
Regarding B5, the figures for the Km in data set [9] and in data set [10] were 1000 µM and 5000 µM, respectively. The values for the kcat in [9] and in [10] were 6.0 s⁻¹ and 0.05 s⁻¹, respectively.

B6: isopentenyl monophosphate kinase from Methanocaldococcus jannaschii, SEQ ID NO:6 (Methanocaldococcus jannaschii DSM 2661) (protein)
chain: MLTILKLGGSILSDKNVPYSIKWDNLERIAMEIKNALDYYKNQNKEIKLILVHGGGAFGHPVAKKYLKIEDGKKIFINMEKGFWEIQRAMRRFNNIIIDTLQSYDIPAVSIQPSSFVVFGDKLIFDTSAIKEMLKRNLVPVIHGDIVIDDKNGYRIISGDDIVPYLANELKADLILYATDVDGVLIDNKPIKRIDKNNIYKILNYLSGSNSIDVTGGMKYKIDMIRKNKCRGFVFNGNKANNIYKALLGEVEGTEIDFSE
In the case of B6, in data set [11], the Km came out at 490 µM and the kcat amounted to 3 s⁻¹. In addition, in [12], the Km is 200 µM and the catalytic constant (kcat) was 3.4 s⁻¹.
